Test results as given in the nanobody polyreactivity screen of Harvey et al. (2022).

Experiment: yeast display, Sf9 membrane polyspecificity reagent, FACS + sequencing; frameworks hold sequencing errors
In short: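 Nanobodies came from a synthetic yeast display library in Saccharomyces cerevisiae BJ5465, induced with galactose for 36–48 hours and stained for 1 hour at 4 °C with 10% biotinylated, detergent-solubilized Sf9 membrane reagent. Cells were enriched on streptavidin microbeads and then FACS-sorted, with low and high (top ~1%) gates set on anti-HA fluorescence for expression and streptavidin fluorescence for reagent binding. Each polyreactivity label reflects the gate a clone came from. Genes were amplified by colony PCR, sequenced by MiSeq 2 × 250 and filtered by CDR length.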

Sequence | polyreactivity (PSR sort gate)
QVQLVESWGGLVQAGGSLRLSCAASGRIFRNYVMGWYRQAPGKERELVAAISRSGGSTYYADSVKGRFTISRDNAKNTVYLQMNSLKPEDTAVYYCNADYATRRVSLNYGYWGQGTQVTVSS | high polyreactivity
QVQLVESWGGLVQAGGSLRLSCAASGRTFAYYAMRWYRQAPGKERELVAAISSGGRTNYADSVKGRFTISRDNAKNTVYLQMNSLKPEDTAVYYCARKASYQIYNGQYGGFGYGYWGQGTQVTVSS | high polyreactivity
QVQLVESWGGLVQAGGSLRLSCAASGRTFIRYTMGWYRQAPGKERELVASIRYSGASTSYADSVKGRFTISRDNAKNTVYLQMNSLKPEDTAVYYCAADRYWWWYNSPYSGMDYWGQGTQVTVSS | high polyreactivity
QVQLVESWGGLVQAGGSLRLSCAASGRTFYSNAMGWYRQAPGKERELVAAITSTDDSTYYADSVKGRFTISRDNAKNTVYLQMNSLKPEDTAVYYCNTDGLIAIRGLWWVEYDYWGQGTQVTVSS | low polyreactivity
QVQLVESWGGLVQAGGSLRLSCAASGSTFILYAMGGYRQAPGNERELVAAITSRGVSTYYADSVKGRFTISRDNAKNTVYLQMNSLKPEDTAVYNWAADQYQASYYYWGQGTQVTVSS | low polyreactivity
QVQLVESWGGLVQAGGSLRLSCAASGSTIIGYDMGWYRQAPGKVRELVAAISYSDGTYYADSVKGRFTISRDNAKNTFYLPMNSLKPEDTAVYYCAADSLYYRYDYWGQGTQVTVSW | low polyreactivity
QVQLVESWGGLVQAGGSLRLSCAASGSTISDNAMGWYRQAPGKERELVATIDDDGSTYYADSVKGRFTISRDNAKKTVYLQMNSLKPEDTAVYYCAAEWYGGYPFGYWGQGTQVTVSS | low polyreactivity
QVQLVESWGGLVQAGGSLRLSCAASGYTFSYYAMGWYRPAPWKERELVAAITSTGSTYYADSVKVRFTISRDNAKNTVYLQMNSLKPEDTAVYYCNVDDATVGPVDYWGQGTQVTVSS | low polyreactivity
QVQLVESWGGLVQAGGSLRLSCAATGVTFKFYAMGWYRQAPGKERELVAAISWSGTSTYYADSVKGRFTISRDNAKNTVYLQMNSLKPEDTAVYYCAADKRLRGHGYDYWGQGTQVTVSS | high polyreactivity
QVQLVESWGGLVQAGGSLRLSCDASGSIFVSNAMGWYRQAPGKERELVAAISRGGVNTNYADSVKGRFTISRDNAKNTVYLQMNSLKQEDTAVYYCAAKWSHVRDGPKYDYCGQGTQVTVSS | low polyreactivity
QVQLVESWGGLVQAGGSLRLSCDDSGFTIRVYAMGWYRQAPGKERELVAAISVRGDSTYYADSVKGRFTISRDNAKNTVYLQMNSLKPEDTAVYYCNAVIAPYRRYDYWGQGTQVTVSS | high polyreactivity
QVQLVESWGGLVQAGGSLRLSSAASGLTFWYYAMGCNRQAPGKESELVAAITSVGSSYYADSVKGRFTISRDNAKQTVYLQMNSLKPEDTAVYYCAAGVPPLYFRRGGDYWGQGTQVTVSS | high polyreactivity
QVQLVESWGGLVQARGRLRLSFAASGSTYQNAMRCYRQAPGKEREFVAAISWSGGSTYYGDSVKGRFTISRDNAKNTVYLQMNSLKPEDTAVYYCAAYSYFSPWYDYWGQGTQVTVSS | high polyreactivity
QVQLVESWGGVVQAGGSLRISCAASGFILARYAMGWYRQAPGKERELVAAIRRSGGGTYYADSVKGRFTISRDNAKYTVYLLMKSLKPEDTAVYYCNRDPTYLAYYINYDSWGQGTQVTVSS | high polyreactivity
QVQLVESWRGLVQEGGSLRLSCAASGRTFYSYAMGWYIQAPGKERELVAAITRRGTSTYYADSVKGRFTISRDNAKNTVYLQMNSLKPEDTAVYYCAARLPGTFSYGYWGQGTQVTVSS | high polyreactivity
QVQLVETAGGLVQAGGSLRLSCAASGRIFYGYTLGWYRPAPGKERELVAAISRGGSTYYADSVKGRFTISRDNAKNTVYLQMNSLKPEDPAVYYCAKTYRRRYYPYFHFRYYWGQGTQVTVSS | high polyreactivity
QVQLVETAGGLVQAGGTLRLSCPASGFTIFDNAMGWSRHPPGQERELVAVITKRGGSTYYADSVKGRFTISRYNAKNTVYLQMNILKPEDTAVYYCAADSRFSNFGVTQVTSDYWGQGTQVTVSS | low polyreactivity
QVQLVETGACLVQAGGSLRLSCAASGLTFFGYTMGRYRQAHGKEREFVADITWSGGSTYYADSVKGRFTISRDNAKNTVYLQMNSLKPEDTAVYYCAVAPPNWDPFVDDTYLMDYWGQGTQVTVSS | low polyreactivity
QVQLVETGAGLVQAGGRLRLSCDSSGSTFYVYYMGWYRQSPGKERELVAAISSGAGSTYYADSVKGRFTISRDNAKNTVYLQMNSLTRKIPRSSTALLFTVNGGGSRSHDYWAQGTQVTVSS | low polyreactivity
QVQLVETGGGLFQAGGTLLLSCAASGRIFIRNALVWYRQAPGKEWELVAAIRTRDASTYYADSVKGRFTISRDIAKNTVYLLMNSLKPVDTAVYYCNADTTWPSSSGPTTFGQGDYWGQGTQVTVSS | low polyreactivity
QVQLVETGGGLVHAGGSLRLSCAASGSTISLYARGWYRQAPVKERELVASITWGGGSTYADSVKGRFTISRDNAKNTVYLQLNRLKPEDTAVYYCARKYRYRVLYDFAYDHWGQGTQVTVSS | low polyreactivity

Sequence | polyreactivity (PSR sort gate)
QVQLVETGGGLVQAAGSLRLSTAASGSTYWCNTMGWYRQAPGKERELVADIRTSGGGTYYADSVKGRFTISRDNAKNTVYLQMNRLKPEDTAVYYCNAVPNWEMGSWGLGTQVTVSS | low polyreactivity
QVQLVETGGGLVQAGGILRLSCAASGLTIIYYAMGWYRQSPGKERELVAAISGSVGSTYYADSVQGRFTISRDNAKNTVYLQMNSLKPEDTAVYYCNADRWGFGNVRKYDYWGQGTQVTVSS | low polyreactivity
QVQLVETGGGLVQAGGSHRLSCAASGFTFWYNAMGWYRPAPGKERELVAAIDWRGSSTYYADSVNGRFTISRDNAKNTVYLQMNSLKPEDTAVYYCAADFGDRYVYWAQGTQVTVSS | high polyreactivity
QVQLVETGGGLVQAGGSLGLSCDASGRIFDYYSMGWYRQATGKERELVASITRGGITYYADSVKGRFTISRDNAKNTVYLQMNSLKPEDTAVYYCADGLRWRRTYGYWGQGTQVTVSS | high polyreactivity
QVQLVETGGGLVQAGGSLLLSCAASGNTFQYYAMGCYRQAPGKERELVAAITTGGSTNYADSVKGRFTISRDNAKNTVYLQMNSLKPEDTAVYYCAARGCVSKRISDYWGQGTQVTVSS | low polyreactivity
QVQLVETGGGLVQAGGSLRLSCAASARTFVPYAMGWYRPAPGKERELVADITDGDVSTYADSVNGRFTISRDKAKNTVYLQMNSLKPDDNAVYYCAAQYRRLVTRWPVTFGYWGQGTQVTVSS | low polyreactivity
QVQLVETGGGLVQAGGSLRLSCAASGFIFSAYAMGWYRQAPGKEREFVAAISKRGGSTYYADSVKGRFTISRENAKNTVYLQMNTLKPDDTAVYYCAAPYSRYLVGYGYWGQGTQVTVSS | high polyreactivity
QVQLVETGGGLVQAGGSLRLSCAASGFIFSYNAMGWYRQAPGKERELVASISRADSTNYADSVKGRFTISRDNAKNTVYLQMNSLKPEDTAVYYCAKKGRTARRLYSFDYWGQGTQVTVSS | low polyreactivity
QVQLVETGGGLVQAGGSLRLSCAASGFIFYDYAMGWYRQSPGKERELVASISWSSGSTYYADSVKGRFTISRDNAKNTVYLQMNSLKPEDTAVYYCAADGYPLQLYNYWGQGTQVSVSS | low polyreactivity
QVQLVETGGGLVQAGGSLRLSCAASGFIVAEYAMGWYIQAPGKERELVAAITRSGGRTYYADSVKGRFTISRDNAKNTVYLQMNSLKPEDTAVYYCAAGLGYPRLYYWGQGTQVTVSS | high polyreactivity
QVQLVETGGGLVQAGGSLRLSCAASGFTCYRNAIGWYRQAPRKDREIVAAITSDGITYYADSVKGRFTMSRDNAKNTVYLQMNSLKPEDTAVYYCAADVQADLYSYEYDYWGQGTQVTVSS | low polyreactivity
QVQLVETGGGLVQAGGSLRLSCAASGFTFKFNTMGWYRQAPGKERELVAAISWRGGDTSYADSVKGRFTISRDNAKNTVYLQMNSLKPEDTAVYYCAASPRYPYWYDYWGQGTQVTVSS | low polyreactivity
QVQLVETGGGLVQAGGSLRLSCAASGFTFSYYAMGWYRQAPGKERELVAAISWSGGSTYYADSVKGRFTISRDNAKNTVYLLMNSLKPEDTAVYYSNKVGRAIGPYDYWGQGTQVTVSS | high polyreactivity
QVQLVETGGGLVQAGGSLRLSCAASGIFTYTMGWYRQAPRKERELVAAITNGSTYDADSVKGRFTISRDNAKNTVYLQMNSLKPEDTEVYYCAADRSSAYRWRSAGYYKYDYWGQGTHVTVSS | low polyreactivity
QVQLVETGGGLVQAGGSLRLSCAASGIIFDVYAMGWYRPAPGKERELVAAISYGGGTTYYADSVKGRFTISRDNAKNTVYLQMNSLKPEDTAVYYCAADSYRSIGDDYWGQGTQVTVSS | high polyreactivity
QVQLVETGGGLVQAGGSLRLSCAASGIIIPWYTMGWYRQAPGKERELVAAISSGGRTNYADSVKGRFTISRDNAKNTVYLQMNSLIPEDTAVYYCAANYYRDRDWGQGTQVTVSS | high polyreactivity
QVQLVETGGGLVQAGGSLRLSCAASGITFASYAMGWYRHAPGKEREFVATITTGGTNTYYADSVKGRFTLSRDNAKKTVYLQMNSQKPEDTAVYYCAADSTPYVLSGNYDYWGQGTQVTVSS | low polyreactivity
QVQLVETGGGLVQAGGSLRLSCAASGITFERYVMGWYRQAPGKERELVAVITKRGGNTYYADSVKGRFTISRDNAKNTVYLQMNSLKPEDTSVYYCATRSGRSTGDYWGQGTQVTVSS | high polyreactivity
QVQLVETGGGLVQAGGSLRLSCAASGITFVKYAMGWYRQAPGKERELVAAISGSGGSTSYADSVKGRFTISRDNAKNTVYLQMNSLKPEDTAVYYCNKAIVRYPKTRDYWGQGTQVTVSS | low polyreactivity
QVQLVETGGGLVQAGGSLRLSCAASGLTFYDYAMGWYRQAPGKERELVADIDFNGGSTSYADSVKGRFTISRDNAKNTVYLQMNSLKPEDTAVYDCNTRDRGDVVTGLDYWGQGTQVTVSS | low polyreactivity
